# Test results as given in PMC3553997 (Nucleic Acids Research, 2012).
# T1: TreR (TM0393) (Thermotoga maritima, UniProt Q9WYM4)
# T1 sequence (Q9WYM4 1-371): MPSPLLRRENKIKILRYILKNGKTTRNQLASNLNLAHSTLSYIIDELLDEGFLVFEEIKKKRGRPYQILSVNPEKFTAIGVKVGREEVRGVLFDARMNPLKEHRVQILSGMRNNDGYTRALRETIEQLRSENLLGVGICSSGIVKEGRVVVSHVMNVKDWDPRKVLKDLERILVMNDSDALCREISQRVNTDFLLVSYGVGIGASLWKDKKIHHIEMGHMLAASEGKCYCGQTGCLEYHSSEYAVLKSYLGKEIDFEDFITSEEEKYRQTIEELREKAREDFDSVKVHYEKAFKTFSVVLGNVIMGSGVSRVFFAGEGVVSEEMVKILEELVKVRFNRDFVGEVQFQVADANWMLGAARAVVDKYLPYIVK
# T2: BglR (Thermotoga maritima MSB8, UniProt Q9WXN9 1-381)
# T2 sequence: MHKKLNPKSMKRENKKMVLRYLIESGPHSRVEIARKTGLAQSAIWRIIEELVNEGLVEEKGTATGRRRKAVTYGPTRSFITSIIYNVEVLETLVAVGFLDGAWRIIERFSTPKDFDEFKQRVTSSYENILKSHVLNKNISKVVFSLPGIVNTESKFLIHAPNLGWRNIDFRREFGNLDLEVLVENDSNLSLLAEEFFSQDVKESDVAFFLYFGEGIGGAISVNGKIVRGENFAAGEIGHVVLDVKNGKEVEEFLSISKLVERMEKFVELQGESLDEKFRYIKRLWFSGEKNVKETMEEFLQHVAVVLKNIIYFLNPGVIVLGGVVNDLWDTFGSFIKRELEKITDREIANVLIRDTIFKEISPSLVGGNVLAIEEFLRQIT
# T3: XylR (Thermotoga maritima MSB8, UniProt Q9WXW5 1-378)
# T3 sequence: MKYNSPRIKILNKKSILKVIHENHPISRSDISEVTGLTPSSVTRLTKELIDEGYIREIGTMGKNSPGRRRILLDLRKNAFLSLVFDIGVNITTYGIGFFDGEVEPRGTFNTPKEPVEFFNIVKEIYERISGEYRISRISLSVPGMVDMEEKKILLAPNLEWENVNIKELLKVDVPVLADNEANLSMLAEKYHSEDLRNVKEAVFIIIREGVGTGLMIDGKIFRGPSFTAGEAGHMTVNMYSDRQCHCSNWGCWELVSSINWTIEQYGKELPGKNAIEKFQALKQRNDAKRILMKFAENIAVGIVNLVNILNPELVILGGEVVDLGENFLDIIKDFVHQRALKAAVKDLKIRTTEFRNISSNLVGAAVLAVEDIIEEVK
# T4: TreR (Thermotoga maritima, UniProt Q9WYM4 1-371)
# T4 sequence: T1 sequence (Q9WYM4 1-371)
# T5: ManR (Thermotoga maritima, UniProt Q9X0V1 1-368)
# T5 sequence: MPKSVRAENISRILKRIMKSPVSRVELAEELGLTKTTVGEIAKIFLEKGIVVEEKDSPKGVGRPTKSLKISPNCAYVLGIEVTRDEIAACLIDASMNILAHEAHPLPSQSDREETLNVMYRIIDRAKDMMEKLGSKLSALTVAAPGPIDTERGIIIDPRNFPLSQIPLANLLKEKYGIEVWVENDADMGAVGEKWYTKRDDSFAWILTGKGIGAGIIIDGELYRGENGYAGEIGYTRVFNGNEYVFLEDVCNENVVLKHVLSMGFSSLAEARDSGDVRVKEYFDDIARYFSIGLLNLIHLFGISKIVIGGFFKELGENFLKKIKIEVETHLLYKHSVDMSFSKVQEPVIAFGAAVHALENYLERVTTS
# T6: ChiR (Thermotoga maritima, UniProt Q9WZR5 1-355)
# T6 sequence: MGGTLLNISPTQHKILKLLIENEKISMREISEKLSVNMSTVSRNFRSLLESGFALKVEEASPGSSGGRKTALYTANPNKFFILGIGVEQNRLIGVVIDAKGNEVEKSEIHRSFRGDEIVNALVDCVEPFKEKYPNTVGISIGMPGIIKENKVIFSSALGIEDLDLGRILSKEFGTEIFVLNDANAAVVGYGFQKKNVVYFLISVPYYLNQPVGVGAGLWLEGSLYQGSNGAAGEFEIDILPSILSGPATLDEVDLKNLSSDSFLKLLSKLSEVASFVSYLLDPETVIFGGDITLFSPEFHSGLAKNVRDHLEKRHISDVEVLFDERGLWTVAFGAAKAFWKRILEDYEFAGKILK
# T7: IolR (Thermotoga maritima MSB8, UniProt Q9WYP2 1-383)
# T7 sequence: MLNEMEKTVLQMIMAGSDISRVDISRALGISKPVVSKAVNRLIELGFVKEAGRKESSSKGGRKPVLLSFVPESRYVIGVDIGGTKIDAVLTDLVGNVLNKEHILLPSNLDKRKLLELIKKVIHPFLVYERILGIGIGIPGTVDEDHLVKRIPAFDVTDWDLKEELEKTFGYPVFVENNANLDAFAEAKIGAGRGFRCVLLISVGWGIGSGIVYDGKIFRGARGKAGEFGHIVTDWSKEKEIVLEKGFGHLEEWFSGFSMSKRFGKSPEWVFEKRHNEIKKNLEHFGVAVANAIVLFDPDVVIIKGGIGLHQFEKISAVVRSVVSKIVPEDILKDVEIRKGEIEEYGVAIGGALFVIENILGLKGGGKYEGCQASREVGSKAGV
# B1: bglR site (dsDNA)
# DNA 1: GAGTCATATCGTTATAATTTCTTTCTGAGGAAGATAGATAAGAAGCAGG
# DNA 2: CCTGCTTCTTATCTATCTTCCTCAGAAAGAAATTATAACGATATGACTC
# B2: xloE site (dsDNA)
# DNA 1: AGATTTACATTAAAATATTTCCCGAAAGGAAAAAATATAACATACAATC
# DNA 2: GATTGTATGTTATATTTTTTCCTTTCGGGAAATATTTTAATGTAAATCT
# B3: treT site (dsDNA)
# DNA 1: TGATTAATTGTGTATTAATTCAAGTTACGAATAAATTTGGGAGGGATCA
# DNA 2: TGATCCCTCCCAAATTTATTCGTAACTTGAATTAATACACAATTAATCA
# B4: mtpE site (dsDNA)
# DNA 1: TAACATAATCTTTTTATTAGTAAGTGTTATTTATTAACATCCATTTAAA
# DNA 2: TTTAAATGGATGTTAATAAATAACACTTACTAATAAAAAGATTATGTTA
# B5: manB site (dsDNA)
# DNA 1: CGATGACCCTGATAAATAAGTAAAGTTTACTAATTAACGGGAGGTATCG
# DNA 2: CGATACCTCCCGTTAATTAGTAAACTTTACTTATTTATCAGGGTCATCG
# B6: xynA site (dsDNA)
# DNA 1: TCGAAGAAGCTCAATTTTTTCTTTACAAAAAATAACTTTAGGGTGATAT
# DNA 2: ATATCACCCTAAAGTTATTTTTTGTAAAGAAAAAATTGAGCTTCTTCGA
# B7: xylR site (dsDNA)
# DNA 1: ACCTTGATTTTAAATTATTTCCTGCATATAATTAATGTGAACATAATAT
# DNA 2: ATATTATGTTCACATTAATTATATGCAGGAAATAATTTAAAATCAAGGT
# B8: chiR site (dsDNA)
# DNA 1: ACAATAATTTATGAAGTTGTTTGCGGCATGCAACTAACTGATGGGAGGG
# DNA 2: CCCTCCCATCAGTTAGTTGCATGCCGCAAACAACTTCATAAATTATTGT
# B9: xylA site (dsDNA)
# DNA 1: CCCAAGATTTTATATAATTGATTGATAGAAAAAATTTAGGGAGGTGTTT
# DNA 2: AAACACCTCCCTAAATTTTTTCTATCAATCAATTATATAAAATCTTGGG
# B10: iolR site (dsDNA)
# DNA 1: TAGTTGACAAATTGATTATAATGTGGTTGGTTAGTTAACGATAACAAACGAAAGGAATGGAAAAATGCTGAAT
# DNA 2: ATTCAGCATTTTTCCATTCCTTTCGTTTGTTATCGTTAACTAACCAACCACATTATAATCAATTTGTCAACTA
# Assays:
# [1] = molecular target: T1, TreR (TM0393); test: EMSA, loss of operator DNA binding; details: 50 nM protein, TM0392/treT operator DNA; pH 8.0, 150 mM KCl, 5 mM MgCl2, 60°C
# [2] = molecular target: T2, BglR; test: EMSA
# [3] = molecular target: T3, XylR; test: EMSA
# [4] = molecular target: T4, TreR; test: EMSA
# [5] = molecular target: T5, ManR; test: EMSA
# [6] = molecular target: T6, ChiR; test: EMSA
# [7] = molecular target: T7, IolR; test: EMSA
molecule,measurement,setting,value
OC[C@H]1O[C@H](O[C@H]2O[C@H](CO)[C@@H](O)[C@H](O)[C@H]2O)[C@H](O)[C@@H](O)[C@@H]1O [Trehalose],Tested potential ligands / (Sugar),[1],0.2 mM
B1,binding signal,[2],2.5 nM
B2,binding signal,[3],5 nM
B3,binding signal,[4],10 nM
B4,binding signal,[5],25 nM
B5,binding signal,[5],10 nM
B6,binding signal,[3],2.5 nM
B7,binding signal,[3],2.5 nM
B8,binding signal,[6],0.5 nM
B9,binding signal,[3],5 nM
B10,binding signal,[7],2.5 nM
